Data: PMC2888445 (The Journal of Biological Chemistry, 2010)

Molecular target: T1, GST-AC8 1–77 (rat, UniProt P40146 1-77)
T1 sequence (looked up): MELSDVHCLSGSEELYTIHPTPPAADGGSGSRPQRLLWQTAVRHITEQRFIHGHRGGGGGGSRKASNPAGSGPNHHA
Assay: pull-down

fold interaction against GST-AC8 73–179 (densitometry, HA band relative to GST): 1.6 fold
B1: AKAP150-HA (natural protein, rat, UniProt P24587 1-714, looked up)
chain: METSVSEIQIETKDEKRPEAASPQKERQERKTATLCFKRRKKVNKKKAKAGSKTAEETEKHAPEAGGSGQRQPAGAWASIKRLVTHRKPSESAEKQKPSEAEMQPEDGALPKKKTKSKLKIPCIRFSRGAKRSRPSKLTEDSGYVRVQGEADDLEIKAQIQPDEQATQAKSTQGLQEDVIVRDGKEIQESHISNNVISGEHVIGIELELEKESSALRMRTPGSEKEAKVILVKQGVQVQEASVLENSAADSPQPVTSTAPLSPATTHQLGLEEPSDSIRESAPSGKDDGRRKTAAEEKKSGETALGQAEEASSVSQADKSVLSQAEEATVGHTEEATVIQAQSQAKEGKLSQAEEATVAQAKETVLSQAEEVKLSQIEEPAISQAKKATVGQAKEAYVSQAEEAIVGHTEKATMGQAEEATVGHIEKTTVGQAEEATVGQAEEATVGQAEEATVGQAEEATVGQAEEATVGQAGEATVSHIEKTTVGQAEEAIVGQAEEATVGQAEEATVGQAEEATVGQAEEATVDQAEEATVGQAEEATVGQAGEAAVGQAEEAIVAQAEEATVGQAGEATVGQAEKATVGQAEEPIVGQAEETVLRHASDLKVNGVDAEKPRSEESKRMEPIAIIITDTEISEFDVKKSKNVPKQFLISMENEQVGVFANDSDFEGRTSEQYETLLIETASSLVKNAIELSVEQLVNEMVSEDNQINTLFQ
